Assays:
[1] = test system: MS2 coat protein; assay: apparent KD of MS2 coat protein, switch ON state; designed switch direction (-1 OFF switch, 1 ON switch): -1; higher = weaker reporter binding; settings: FMN input: 0 or 200 uM; Eterna round: R93 (includes R88 designs)
In short: (§1)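 In 100 mM Tris-HCl pH 7.5 with 80 mM KCl and 4 mM MgCl2, and without or with constant ligand, SNAP-549-labelled MS2 coat protein was titrated in twofold steps from 0.7 or 1.5 nM to 3 µM. Per-step times went from 0.8–1.5 h down to 10–20 min. The RNA switches were transcribed on-chip from Illumina sequencing clusters, and apparent KD is the per-design median of normalised cluster binding-curve fits.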

[2] = test system: MS2 coat protein; assay: apparent KD of MS2 coat protein, switch OFF state (with FMN for OFF switches, without FMN for ON switches); designed switch direction (-1 OFF switch, 1 ON switch): -1; higher = weaker reporter binding; settings: FMN input: 0 or 200 uM; Eterna round: R93 (includes R88 designs)
In short: as §1

Sequence | apparent KD of MS2 coat protein [1] [nM] | apparent KD of MS2 coat protein [2] [nM]
AAGCUGGUAGGAUAUACUAGGGCAACUAAUGCACCGAUAGGACAUGAGGAUCACCCAUGUAGAAGGGCCAGAAA [JR_Exc002_Sub404] | 65.5 | 137
AAGGAUCGAGGAUAUACAUAGAUACAGAUACAUGUAGAACUACAUGAGGAUCACCCAUGUAGAAGGCGAUCAUA [AJ 30] | 23.9 | 56.3
AAGGGACAUGAGGAUCACCCAUGUCAGGAUAUGCAAACAACAAACAACAAACAACAAAGCAGAAGGGACAAAAA [63%, Olong, 5] | 29.1 | 24.1
AAGGUACGAGGAUAUACAUAGAUACAGACACAUGUACAUGUACAUGAGGAUCACCCAUGUAGAAGGCGUAUAUA [AJ 19] | 86.1 | 69.7
AAUAAGUGAGGAUAUACUAAAGAAAUGAAAAGGGAUAAAGAACAUGAGGAUCACCCAUGUAGAAGGCACAAUAA ['Aper-'Anat] | 31.9 | 37.2
AAUAAGUGAGGAUAUCGAAGACUGUCGAAAAGACAGUCGAACGAGAAGGCACAUGAGGAUCACCCAUGUGAGGG [Mat - Exaclusion 4 - Eli mod - D69] | 130 | 107
AAUAAGUGAGGAUAUGGAAAUAGUAGAUAAGAUUCCCUAAACCAGAAGGCACAUGAGGAUCACCCAUGUAAAUA [JR_Exc004_Sub005] | 38.7 | 26.4
AAUAAGUGAGGAUAUGUGAAUAGAAGAUAAGAUACCCAAAAACAGAAGGCACAUGAGGAUCACCCAUGUAAAUA [JR_Exc004_Sub009] | 33.7 | 24.3
AAUAGUGGAGGAUAUACAUGAGGAUCACCCAUGUAGAAAGGAAGUGUAUAUAUGGCGUGUAGAAGGCCAAAUAA [Mai Tai 3 ala Nando] | 32.3 | 30.3
AAUGGUGCAGGAUAUACAUGAGGAUCACCCAUGUACAUCAGACAUAUGGUCGAAGCAUGUAGAAGGGCACCAAA [Ex 3May 56] | 145 | 183
AAUUAGGUAGGAUAUACAUGAGGAUCACCCAUGUAGGAAAAAAGCUACGAAAAAGAAUGUAGAAGGACCUAAAA [Ex 3 Sunny] | 13.2 | 18.7
ACAUCUAGAGGAUAUACAUGGAAAAAAAAAAAAAAAAAACUACAUGAGGAUCACCCAUGUAGAAGGCUAGAUGA [Ex2 Design 192: Random 12] | 40.4 | 35.7
ACCAGACAUGAGGAUCACCCAUGUCAGGAUAUGCAUCUUAGGAAAAAAAAACUAAGAUGCAGAAGGGACAAGGG [Design 5: Super Stable - A-U mutation] | 16 | 20.1
ACUUGACAUGAGGAUCACCCAUGUCAGGAUAUAGUAGGACAAAUAAAUAAAAGUUCUACUAGAAGGGAUAUGGG [Design 20: G-U+ 4] | 20.7 | 36.5
AGAAAACAUGAGGAUCACCCAUGUCAGGAUAUCCAAAUAAAAAUAAAAUAAAAUAAAAGGAGAAGGGACAAAAG [May 1] | 49.2 | 66.9
AGAAAACAUGAGGAUCACCCAUGUCAGGAUAUCUAAAAGAAAAGAAAAGAAAGAAGAAGGAGAAGGGACAAGAA [Djoser] | 21.2 | 21.8
AGAAACGUAGGAUAUACAUGAGGAUCACCCAUGUAAAGAAAGAAGGGAGCCACAAGAAGUAGAAGGACGAAGAA [JR_Exc003_Sub004] | 33.4 | 131
AGAAAGCGAGGAUAUGCACGGGAAGAAAGAAGAGAGAAAAAACAUGAGGAUCACCCAUGUAGAAGGUGUAUAAA [JR_Exc002_Sub1713] | 38.4 | 25.8
AGAUCAUCAGGAUAUACAUAGGUGAAAAAAGUAAAUCCACUACAUGAGGAUCACCCAUGUAGAAGGGAUGAUCA [Ex2 Design 176: Random 4] | 39.1 | 30.3
AGCUAGUCAGGAUAUACAAAGAUGUCGAAAGACGUCAAGGGACAUGAGGAUCACCCAUGUAGAAGGGACUAGCA [Mod of Janderson's WEB Mod v.3] | 56.2 | 197
AGCUAGUCAGGAUAUACGAAAAUGUCAGAAGCUGUGAAGGGACAUGAGGAUCACCCAUGUAGAAGGGACUAGCA [Diamond 38] | 69.1 | 218
AGCUAGUCAGGAUAUACGAACAGGUCAAAAGACGUAAGGGAACAUGAGGAUCACCCAUGUAGAAGGGACUAGCA [Diamond 52] | 32.9 | 84.3
